Test results taken from paper PMC9239103, “System-Wide Analysis of the GATC-Binding Nucleoid-Associated Protein Gbn and Its Impact on Streptomyces Development”.

T1: Gbn (SCO1839) (Streptomyces coelicolor A3(2) M145, UniProt Q9RJ29 1-73)
T1 sequence: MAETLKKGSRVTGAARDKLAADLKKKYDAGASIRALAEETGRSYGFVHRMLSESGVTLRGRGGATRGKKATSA

B1: p1839_50Quadruple (dsDNA)
DNA 1: GATGGCGGATCACGGATCGGCCGAATGATCCATAACCAGTGGATCATCCA
DNA 2: TGGATGATCCACTGGTTATGGATCATTCGGCCGATCCGTGATCCGCCATC
B2: p1839_50Single_strong (++, GATCWT) (dsDNA)
DNA 1: CTCGACGCCGTCCGGAAGCAGAATGATCCGTTCCGGCTGGAGCGCCTCGA
DNA 2: TCGAGGCGCTCCAGCCGGAACGGATCATTCTGCTTCCGGACGGCGTCGAG

Tests used:
Gbn (SCO1839) [1] = target: T1, Gbn (SCO1839); experiment: EMSA; three binding events seen for four motifs; 7.5 nM DNA; EMSA: 10 mM Tris-HCl pH 7.9, 0.1 mM EDTA, 50 mM KCl, 30 C 15 min, 5% PAGE, ethidium bromide; TPM: 10 mM Tris-HCl pH 8.0, 0.1 mM EDTA, 50 mM KCl, 0.5% acetylated BSA; settings: protein: recombinant; tags: His6 (pET28a, pGWS1286; printed as both His6-Gbn and Gbn-His6); blunt
Gbn (SCO1839) [2] = target: T1, Gbn (SCO1839); experiment: EMSA; half-binding concentration reduced by more than one-third versus N2; 5 nM DNA; EMSA: 10 mM Tris-HCl pH 7.9, 0.1 mM EDTA, 50 mM KCl, 30 C 15 min, 5% PAGE, ethidium bromide; TPM: 10 mM Tris-HCl pH 8.0, 0.1 mM EDTA, 50 mM KCl, 0.5% acetylated BSA; settings: protein: recombinant; tags: His6 (pET28a, pGWS1286; printed as both His6-Gbn and Gbn-His6); blunt

Row | Binder | binding result (Gbn (SCO1839) [1]) | binding result (Gbn (SCO1839) [2])
1 | B1 | binds | –
2 | B2 | – | binds
